According to the supplement of paper PMC10567573:
± gives the standard deviation.

Assay: protein stability index of a GFP-peptide fusion (GPS, HEK-293T) (PSI 1-6); higher = more stable
Conditions: c terminus: a fixed tail appended
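Also: 24-mer peptide tiles fused after GFP, lentivirally expressed, FACS-sorted into six equal bins by GFP/DsRed ratio, decoded by Illumina sequencing, PSI is the read-weighted mean bin number.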

Sequence	protein stability index (treatment: DMSO)	protein stability index (treatment: MLN4924 1 uM, 8 h)
CAYRTHLVAGIGFYQHLLLYIQSH [SMG5]	3.01 ± 0.63	3.34 ± 0.87
PGPPSAPPPPPKEGHQEGLVELPA [SCNN1D]	5.46 ± 0.23	5.47 ± 0.17
CGTPNYLSPEVLNKQGHGCESDIW [PLK2]	2.78 ± 0.28	2.83 ± 0.28
AKDYADSIHAIFVETSAKNAININ [RAB22A]	2.59 ± 0.27	2.48 ± 0.34
AQYSVTGSAVARAVCKATTHEVMG [SNAP91]	3.34 ± 0.088	3.23 ± 0.2
ASLLHLAVEAGQEECAKWLLLNNA [RIPK4]	2.17 ± 0.068	2.74 ± 0.13
KSENARLVVQIDNAKLAADDFRTK [KRT33B]	4.4 ± 0.41	4.25 ± 0.27
FDVVVCDQVSACIPVFRLARRRKK [ALG2]	2.59 ± 0.28	2.62 ± 0.2
APSIEQRLQEVRESIRRAQVSQVK [FCHSD1]	4.27 ± 0.39	4.35 ± 0.34
PPKWQIGEQEFEALMRMLDNLGYR [ADD1]	2.35 ± 0.26	2.58 ± 0.22
NMPETLPNNSCYSAGIAKLEEGDE [TNFSF13B]	5.35 ± 0.23	5.5 ± 0.21
DVTDEHGEREPFAETDEHTGANTK [FAM9B]	5.49 ± 0.12	5.5 ± 0.065
PEGYNLKDEEGRLRDPATITTLRV [PPP2R2B]	4.54 ± 0.062	4.37 ± 0.29
LPSWADICTNLCEALQNFFSLACS [M1AP]	2.89 ± 0.31	2.9 ± 0.14
AKAEGFTASTKNCMVGYDMGATRC [CPXM2]	3.42 ± 0.31	3.62 ± 0.1
QELVLKVRIQNPSLRENDFIEIEL [ANKRD40]	2.68 ± 1.1	2.38 ± 1
EYNYDWWEKKPFSEDVNWGYEKRN [CHGB]	3.17 ± 0.21	3.19 ± 0.23
PKDENERSTCNVVQDEFLDTPCTN [DLC1]	5.45 ± 0.15	5.41 ± 0.13
QEARERWNFDFVTETPLEGDFAWE [CDKN1A]	4.39 ± 0.29	4.29 ± 0.24
TIRSGISPNLNVVDGRLTYPTCGI [SASS6]	2.86 ± 0.42	3.02 ± 0.26
GECRQMSSSSQIGNDSFQLQVTED [CLCN6]	5.06 ± 0.22	5.09 ± 0.25
FSKASSSLQLVFGIELMEVDPIGH [MAGEA3]	2.62 ± 0.6	2.29 ± 0.46

Sequence	protein stability index (treatment: DMSO)	protein stability index (treatment: MLN4924 1 uM, 8 h)
ISIPITGDTLRTFSLVLVLDLSKP [DYNC2LI1]	2.69 ± 0.62	2.865 ± 0.02
SVTGLDPEARYLFLLDVIPVDGAR [TBX6]	2.15 ± 0.47	2 ± 0.13
LWSDPDDRGGWGISPRGAGYTFGQ [PPP2CA]	2.5 ± 0.31	2.72 ± 0.26
RGPPRGLRGGRGGSGGTRGPPSRG [RBMX]	5.18 ± 0.2	4.92 ± 0.33
EAPSTASSTPDSTEGGNDDSDFRE [RTN2]	5.57 ± 0.35	5.63 ± 0.23
RMIPGQPPASARRLSVPRDSACDE [IRX6]	5.29 ± 0.24	5.29 ± 0.15
VDYPLHDLVLHTNYTATVRGLRGP [TNXB]	2.71 ± 0.19	2.81 ± 0.24
EAYTEHRPEITSRAINLLFDIARI [ZER1]	2.14 ± 0.18	2.01 ± 0.21
SLDKRQGEGLRIYWGSPEEQSLLS [TPRG1]	2.77 ± 0.15	2.85 ± 0.39
ETIQGFWLLTKIDHWNNEKERILL [TPRG1]	2.59 ± 0.44	2.73 ± 0.59
CTEILTEKKDTITNDSLSLKPSWF [MIA2]	3.23 ± 0.28	3.42 ± 0.42
LPSENLGKEPLDPDPSHSPSDKVG [TOR1AIP2]	5.42 ± 0.22	5.494 ± 0.038
SMHKYQPRLHIVKADENNGFGSKN [TBX5]	3.94 ± 0.4	4.24 ± 0.33
TSLRLVFLLAFGLMIIVCIDQWKN [RETREG3]	2.21 ± 0.3	2.03 ± 0.17
MQPEGLKCRMEESNAERGTAEPFP [CBY2]	4.88 ± 0.3	4.69 ± 0.27
AYGHRQCLELVSCFVLFSLTHTHT [ANKRD44]	2.52 ± 1	3.3 ± 0.47
VDGVWTAQRPGITHGVGLVLRVEQ [SCNN1D]	2.21 ± 0.35	2.44 ± 0.24
HGISIPEPEDMETLEEKFSDVHPV [CDKL4]	5.29 ± 0.2	4.98 ± 0.28
PLHVAQTRLYLRSHRPNMELCRDA [TEKT4]	2.9 ± 0.17	3 ± 0.18
VRNLFGLDPSSGAIHVLGPIDFEE [PCDHGC5]	2.19 ± 0.14	2.33 ± 0.14
GPDTQDLEGQSPPQSLPSTPKAAW [PBXIP1]	5.2 ± 0.28	5.07 ± 0.18
IHAELSKLVKKHAAQRSTETALYR [FKBP8]	2.94 ± 0.31	2.69 ± 0.44

Sequence	protein stability index (treatment: DMSO)	protein stability index (treatment: MLN4924 1 uM, 8 h)
ELQGDFSVPDVPKSMAWCENSICV [VPS39]	2.67 ± 0.22	2.67 ± 0.18
DVAVTVDRDRFMDEFFEQVEEIRG [STX1A]	4.35 ± 0.39	4.49 ± 0.25
GEKPHRCPQCGKCFARKSQLTGHQ [ZNF449]	4.66 ± 0.23	4.85 ± 0.31
KTLAVKNEEIQSFIYSLKQMLLNV [FSD1]	2.52 ± 0.37	2.14 ± 0.21
VILGVTNPFFAKTLQHWPHIIRIG [DENND6A]	2.94 ± 0.67	2.78 ± 0.46
IHHLVLTASDGGDPLRSGTVLVSV [PCDHGA10]	2.97 ± 0.45	2.79 ± 0.34
PLESAFDHEDFTGSSSLGFTSSPS [FCHO1]	4.81 ± 0.35	5.07 ± 0.15
VSFSTGAGGWSNHHFCVILLGFLP [BET1L]	2.82 ± 0.39	2.8 ± 0.36
GRQERGLPPSMERGYPPPRDSYSS [RBMX]	4.77 ± 0.088	4.71 ± 0.19
AQTPPRPGPPSAPPPPPKEGHQEG [SCNN1D]	5.73 ± 0.27	5.08 ± 0.72
LATSPITVGDLGIVRRRSRDVPES [YJU2B]	4.42 ± 0.12	4.42 ± 0.2
VWVGVIRYLTFFHNYNILIATLRV [MCOLN1]	3.13 ± 0.1	2.86 ± 0.37
AGNKAALLDQIREGAQLKKVEQNS [WASL]	–	5.24 ± 0.4
RYRQAGSSGPGNSQNSFLVQEVME [RPAIN]	4.17 ± 0.23	3.82 ± 0.28
YQNHKITQLKIENNPFAKGFRGSD [TBX5]	2.96 ± 0.5	3.55 ± 0.61
PSSLMETLEQHLNTLEGKKPGNNE [SNAP91]	5.17 ± 0.09	5.05 ± 0.17
SASLEVVKKDHVALQVPRGKEDST [CBY2]	5.4 ± 0.16	5.35 ± 0.23
EEEERLRREEEERRRIEEERLRLE [ACBD3]	5.61 ± 0.25	5.52 ± 0.12
YRFYFYMWKFVSPLCMAVLTTASI [SLC6A17]	–	4.42 ± 0.71
YQPKRYALSPKTTITMAHLLAARE [FAM98B]	2.31 ± 0.091	2.6 ± 0.39
AAAPVAEVPTAAGALTPTPAPTTT [CLPTM1]	5.3 ± 0.34	5.25 ± 0.097
